Measurements reported in publication PMC9270183 (The Journal of Experimental Medicine, 2022).

B1: V042 (antibody, V domains shown)
VH: QLQLQESGPGLVKPSETLSLTCTVSGGSISSSTNYWGWIRQPPGKGLEWIGSIDYSGSTYYNPSLKSRVTMSVDTSKNQFSLKLSSVTATDTAMYYCARHVIDDSRGYYPAALDHWSQGTLVTVSS
VL: EIVLTQSPATLSLSPGERATLSCRASQSVNNYLAWYQQKPGQAPRLLIYDASNRATGVPARFSGSGSGTDFTLTISSLEPEDFAVYFCQQRSNWPPMYTFGQGTKLEIK
notes: IgG; donor BRA15; source: recombinant monoclonal IgG, produced and purified as previously described
B2: V050 (antibody, V domains shown)
VH: EVQLVESGGGLVKPGGSLRLSCAASGFSFSNAWMSWVRQAPGKGLEWVGRIKSKTDGGTTDYAAPVKGRFTISRDDSQNTLYLQMNSLKTEDTAVYYCITDRFRVHIRGYYGQGTLVTVSS
VL: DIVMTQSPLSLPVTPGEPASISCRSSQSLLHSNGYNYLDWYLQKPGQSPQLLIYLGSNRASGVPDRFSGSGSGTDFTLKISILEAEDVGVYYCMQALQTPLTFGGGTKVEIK
notes: as for B1
B3: V044 (antibody, V domains shown)
VH: QVQLVQSGAEVKKPGASVKVSCKASGYTFTSYDINWVRQATGQGLEWMGWMNPNSGYAGYTQKFQGRITMTRNTSISTAYMELSSLRSEDTAVYFCARISSPTRLDPWGQGTLVTVSS
VL: NFMLTQPHSVSESPGKTVTISCSRSRGSIASSFVQWYQQRPGSSPTTVIYDDNQRPSGVPDRFSGSIDSSSNSASLTISGLKTEDEADYYCQSYDSISWVFGGGTKLTVL
notes: as for B1
B4: V033 (antibody, V domains shown)
VH: QVQLVQSGAEVKKPGASVKVSCKASGYTFTSYGISWVRQAPGQGLEWMGWISAYNGNTNYAQKLQGRVTMTTDTSTSTAYMELRSLRSDDTAVYYCARGRFCSSTSCYRAAPNYYYYYMDVWGKGTTVTVSS
VL: NFMLTQPHSVSESPGKTVTISCTRSSGSIASNYVQWYQQRPGSAPTTVIYEDNQRPSGVPDRFSGSIDSSSNSASLTISGLKTEDEADYYCQSYDSSNPYWVFGGGTKLTVL
notes: IgG; donor BRA14; source: recombinant monoclonal IgG, produced and purified as previously described
B5: V039 (antibody, V domains shown)
VH: QVQLQESGPGLVKPSQTLSLTCTVSGGSISSGSYYWSWIRQPAGKGLEWIGRIYTSGSTNYNPSLKSRVTISVDTSKNQFSLKLSSVTAADTAVYYCARADYSDYDNYYFDYWGQGTLVTVSS
VL: NFMLTQPHSVSESPGKTVAISCTRSSGSIASNYVHWYQQRPGSSPTTVIYDDNQRPSGVPDRFSGSIDSSSNSASLTISGLKTEDEADYYCQSYDSSNHNWVFGGGTKLTVL
notes: as for B1
B6: V056 (antibody, V domains shown)
VH: QVQLVESGGGVVQPGRSLRLSCAASGFPFSNYGMHWVRQAPGKGLEWVAVISYDGSNKYYADSVKGRFTISRDNSKNTLYLQMNSLRAEDTALYYCAKDSRPLPAAMSTYYYYGVDVWGQGTTVTVSS
VL: not shown
notes: as for B1
B7: V060 (antibody, V domains shown)
VH: QVQLVESGGGVVQPGRSLRLSCAASGFPFSNYGMHWVRRAPGKGLEWVAVISYDGLNKYYADSVKGRFTISRDNSKNTLYLQMNRLRAEDTAVYYCAKDSRPVPGAMSTYYYYGMDVWGQGTTVTVSS
VL: not shown
notes: as for B1
B8: V057 (antibody, V domains shown)
VH: EVQLVESGGGLVQPGRSLRLSCAASGFTFGDYAMHWVRQAPGKGLEWVSGISWNSGIIGQADSVKGRFTISRDNAKNSLYLQMNSLRVEDTALYYCAKGGGESVEVPADEKLDYWGQGTLVTVSS
VL: QSVLTQPPSVSGAPGQRVTISCTGSSSNIGAGYDVHWYQQLPGTAPKLLIYGNNNRPSGVPDRFSGSKSGTSASLAITGLQAEDEADYYCQSYDSSLSGSWVFGGGTKLTVL
notes: as for B1
B9: V037 (antibody, V domains shown)
VH: EVQLVESGGGLVQPGGSLRLSCAASEVIVSSNYMSWVRQAPGKGLEWVSVLYSGGSTFYADSVKGRFTISRDNSKNTLYLQMNSLRAEDTAVYYCARDLGPMGAFDIWGQGTMVTVSS
VL: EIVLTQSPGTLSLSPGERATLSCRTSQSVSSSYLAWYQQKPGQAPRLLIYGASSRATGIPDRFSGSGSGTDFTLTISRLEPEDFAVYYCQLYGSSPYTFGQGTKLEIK
notes: as for B1
B10: V004 (antibody, V domains shown)
VH: QVQLQESGPGLVKPSQTLSLTCTVSGGSISSGSYYWSWIRQPAGKGLEWIGRIYTSGSTNYNPSLKSRVTISVDTSKNQFSLKLSSVTAADTAVYYCARDTTDDYYVIWGQGTLVTVSS
VL: DIQMTQSPSTLSASVGDRVTITCRASQSIRSWLAWYQQKPGKAPKLLIYDASSLESGVPSRFSGSGSGTEFTLTISSLQPDDFATYYCQQYNTHFRTFGQGTKVEIK
notes: IgG; donor BRA13; source: recombinant monoclonal IgG, produced and purified as previously described
B11: V063 (antibody, V domains shown)
VH: QVQLVESGGGVVQPGRSLRLSCAASGFPFSSFGMHWVRQAPGKGLEWVAVISSDGSNKYYADSVKGRFTISRDNSKNTLYLQMNSLRAEDTAVYYCAKEFTYVVVTAFWGTENFDIWGQGTMVTVSS
VL: DIQMTQSPSTLSASVGDRVTITCRASQSISSWLAWYQQKPGKAPNLLIYKASALESGVPSRFSGSGSGTEFTLTISSLQPDDFATYYCQQYNSYPITFGQGTRLEIK
notes: as for B1
B12: V038 (antibody, V domains shown)
VH: QVQLVQSGAEVKKPGASVKVSCKASGYTFTGYYVHWVRQAPGQGLEWMGWINPNSGGTNFAQRFQGRVTMTRDTSISTAYMELSRLRSDDTAVYYCARGITVYGVAPDAFDIWGQGTMVTVSS
VL: DIQMTQSPSSLSASVGDRVTITCQASQDISNYLNWYQQKPGKAPKVLIYDASNLEPGVPSRFSGSGSGTDFTFTISSLQPEDIATYYCQQYDNLITFGQGTRLEIK
notes: as for B1
B13: V051 (antibody, V domains shown)
VH: QVQLVESGGGVVQPGRSLRLSCEASGFTFSTYAMHWVRQAPGKGLEWVAVISYDGNNKYYADSVKGRLTVSRDNSKNTLYLQMNSLRAEDTAEYYCARDDGGYCSSLSCPMDVWGQGTTVTVSS
VL: SYELTQPPSVSVAPGKTARITCGGNSIGSKSVHWYQQRPGQAPVLVIYYDSDRPSGIPERFSGSNSGNTATLTISRVEAGDEADYYCQVWDSTLVFGGGTKLTVL
notes: as for B1
B14: V049 (antibody, V domains shown)
VH: QVQLVESGGGVVQPGRSLRLSCAASRFPFSNYGMHWVRQAPGKGLEWVAVISFDGNNKYYGDSVKGRLTISRDNSKNTLYLQVKSLRPEDTAVYYCAKDISTGLSLALFRSPDGEGMDVWGQGTTVTVSS
VL: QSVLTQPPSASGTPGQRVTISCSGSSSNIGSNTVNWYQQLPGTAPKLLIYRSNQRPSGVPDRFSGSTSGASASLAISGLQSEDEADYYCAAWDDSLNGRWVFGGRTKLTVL
notes: as for B1
B15: V007 (antibody, V domains shown)
VH: QVQLVQSGAEVKKPGSSVKVSCKASGDTFSTYTISWVRQAPGQGLEWMGRIIPILGVGNYAQKFQGRVTITADKSTSTAYMELSSLRSEDTAVYYCAHTTPPGDAFDIWGQGTMVTVSS
VL: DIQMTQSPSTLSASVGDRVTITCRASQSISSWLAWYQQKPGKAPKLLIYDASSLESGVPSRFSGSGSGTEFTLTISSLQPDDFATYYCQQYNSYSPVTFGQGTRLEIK
notes: as for B10
B16: V055 (antibody, V domains shown)
VH: QVQLVQSGAEVKKPGSSVKVSCKASGGTFSSYIINWVRQAPGQGLEWMGRIIPILGIANYAQKFHGRVTITADESTSTAYMELSSLRSEDTAVYYCARGGPDPSDSNYAALLYYYYMDVWGKGTTVTVSS
VL: QSVLTQPPSVSAAPGQKVTISCSGSSSNIGSYYVSWYQKLPGTAPKLLIHENNKRPSGIPDRISGSKSGTSATLGITGLQTGDEADYYCGTWDSSLSDVVFGGGTKLTVL
notes: as for B1
B17: V043 (antibody, V domains shown)
VH: QLQLQESGPGLVKPSETLSLTCTVSGGSISSNNYYWGWIRQPPGKGLECIGTIYYSGNTYYNPSLKSRVTISVDTSKNQFSLKLGSVTAADTAVYYCARQQWLRDAFHIWGQGTMVTVSS
VL: NFMLTQPHSVSESPGKTVTISCTGSSGSIASNYVQWYQQRPGSAPTIVIYEDNQRPSGVPDRFSGSIDSSSNSASLTISGLKTEDEADYYCQSYDSNIHVVFGGGTKLTVL
notes: as for B1
B18: V061 (antibody, V domains shown)
VH: QVQLVQSGAEVKKPGTSVKVSCKASGYTFKNYGISWVRQAPGQGLEWMGWISAHNGNTNYAQRVQGRVTMTTDTSTSTAYMELRSLRSEDTAVYYCGRESGVASHPGDLDYWGQGTLVTVSS
VL: SYELTQPPSVSVSPGQTARITCSGDALPRQYAYWYQQKPGQAPVLLIYKDSERPSGIPERFSGSSSGTTVTLTISGVQAEDEADYYCQSADSSVVFGGGAKLTVL
notes: as for B1
B19: V045 (antibody, V domains shown)
VH: QVQLVQSGAEVKKPGASVKVSCKASTYTFTSYYIHWVRQAPGQGLEWMGIINPSGGSTSYAQNFQGRVTMTRDTSTSTVYMELSSLRSEDTAVYYCARGVLIPAAGGDFDYWGQGTLVTVSS
VL: QSALTQPRSVSGSPGQSVTISCTGTSSDVGGYKYVSWYQQHPGKAPKLMIYDVSKRPSGVPDRFSGSKSGNTASLTISGLQAEDEADYYCCSYAGSYSWVFGGGTKLTVL
notes: as for B1
B20: V046 (antibody, V domains shown)
VH: EVQLVESGGGLVQPGRSLRLSCAASGFTFEDYAMHWVRQAPGKGLEWVSGVSWNSGTIGYADSVKGRFIISRDNAKNSLYLQMNSLRAEDTALYYCANLGPTYYDFSRPTPMDVWGKGTTVTVSS
VL: QSALTQPASVSGSPGQSITISCTGTSSDVGGYNYVSWYQQHPGKAPKLIIYDVSNRPSGVSNRFSGSKSGNTASLTISGLQAEDEADYYCSSYTSSSTWVFGGGTKLTVL
notes: as for B1
B21: V054 (antibody, V domains shown)
VH: QVQLVESGGGVVQPGRSLRLSCAASGFPFSSFGMHWVRQAPGKGLEWVAVISSDGSNKYYADSVKGRFTISRDNSKNTLYLQMNSLRAEDTAVYYCAKEFTYVVVTALWGTENFDIWGQGTMVTVSS
VL: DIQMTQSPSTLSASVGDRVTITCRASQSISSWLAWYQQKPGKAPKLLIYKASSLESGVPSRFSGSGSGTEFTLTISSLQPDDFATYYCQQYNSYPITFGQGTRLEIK
notes: as for B1
B22: V062 (antibody, V domains shown)
VH: QLQLQESGPGLVKPSETLSLTCTVSSGSISSSSYYWGWIRQPPGKGLEWIGSIYYSGSTYYNPSLKSRVTISVDTSKNQFSLKLSSVTAADTAVYYCARHWRENFAHAFDIWGQGTMVTVSS
VL: QSALTQPASVSGSPGQSITISCTGTSSDVGSYDLVSWFQQHPGKAPKLMIYEVTKRPSGVSNRFSGSKSGNTASLTISGLQAEDEADYYCCSYVGSSTYWVFGGGTKLTVL
notes: as for B1
B23: V048 (antibody, V domains shown)
VH: QVQLVQSGAEVKKPGASVKVSCKASGYTFTSYVISWVRQAPGQGLEWMGWISAYNGNTNYAQKLQGRVTMTTDTSTSTAYMELRSLRSDDTAVYYCARDVAGITMIVEEVIDAFDIWGQGTMVTVSS
VL: SYELTQPSSVSVSPGQTARITCSGDVLAKKYARWFQQKPGQAPVLVIYKDSERPSGIPERFSGSSSGTTVTLTISGAQVEDEADYYCFSAPDNNRVFGGGTKLTVL
notes: as for B1
B24: V032 (antibody, V domains shown)
VH: QVQLVESGGGVVQPGRSLRLSCAASGFTFSSYGMHWVRQAPGKGLEWVAVISYDGSNKYYADSVKGRFTISRDNSKNTLYLQMNSLRAEDTAVYYCAKVSGPYCSSTSCYTGYWDYWGQGTLVTVSS
VL: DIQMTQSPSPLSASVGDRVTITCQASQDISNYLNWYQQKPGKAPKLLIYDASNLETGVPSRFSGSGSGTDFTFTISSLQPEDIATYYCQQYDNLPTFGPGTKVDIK
notes: as for B4

Target: SARS-CoV-2 Wuhan-Hu-1 RBD (SARS-CoV-2 Wuhan-Hu-1, UniProt P0DTC2)
Test: BLI
Conditions: both partners purified

Binder	Kd
B1	32.5 nM
B2	56.9 nM
B3	5.25 nM
B4	4.68 nM
B5	1.09 nM
B6	14.3 nM
B7	20.6 nM
B8	16.9 nM
B9	6.9 nM
B10	3.59 nM
B11	4.16 nM
B12	5.73 nM
B13	14.5 nM
B14	12.8 nM
B15	3.59 nM
B16	0.981 nM
B17	4.46 nM
B18	13.3 nM
B19	2.95 nM
B20	0.698 nM
B21	17.8 nM
B22	2.86 nM
B23	5.02 nM
B24	8.3 nM
